Measured values: paper PMC1079850 (2005)

Biological target: Tsr (Escherichia coli, UniProt P02942)
Sequence (P02942 whole entry): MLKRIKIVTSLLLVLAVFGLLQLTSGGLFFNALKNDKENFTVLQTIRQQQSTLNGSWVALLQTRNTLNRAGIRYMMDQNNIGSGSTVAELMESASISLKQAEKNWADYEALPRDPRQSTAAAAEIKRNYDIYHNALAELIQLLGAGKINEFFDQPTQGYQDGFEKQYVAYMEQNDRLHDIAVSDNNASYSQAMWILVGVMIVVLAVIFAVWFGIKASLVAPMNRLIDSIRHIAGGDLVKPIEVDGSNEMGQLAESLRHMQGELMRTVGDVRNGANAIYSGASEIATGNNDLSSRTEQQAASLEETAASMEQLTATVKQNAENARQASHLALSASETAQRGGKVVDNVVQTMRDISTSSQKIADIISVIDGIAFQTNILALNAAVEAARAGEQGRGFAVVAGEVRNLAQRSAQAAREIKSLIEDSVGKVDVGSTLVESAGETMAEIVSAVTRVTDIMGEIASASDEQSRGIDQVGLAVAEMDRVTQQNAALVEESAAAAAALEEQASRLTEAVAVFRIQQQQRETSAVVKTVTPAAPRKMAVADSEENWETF

- Kd: ~10 µM
B1: CheW (protein)
chain: MTGMTNVTKLASEPSGQEFLVFTLGDEEYGIDILKVQEIRGYDQVTRIANTPAFIKGVTNLRGVIVPIVDLRIKFSQVDVDYNDNTVVIVLNLGQRVVGIVVDGVSDVLSLTAEQIRPAPEFAVTLSTEYLTGLGALGDRMLILVNIEKLLNSEEMALLDSAASEVA
